# In patent publication US20180244785A1 (MERRIMACK PHARMACEUTICALS, published 2018):
# T1: 6His-Fc-FGFR4 (human, UniProt P22455 144-369)
# T1 construct: not shown: 6His tag and Fc as named in '6His-Fc-FGFR'
# T1 sequence: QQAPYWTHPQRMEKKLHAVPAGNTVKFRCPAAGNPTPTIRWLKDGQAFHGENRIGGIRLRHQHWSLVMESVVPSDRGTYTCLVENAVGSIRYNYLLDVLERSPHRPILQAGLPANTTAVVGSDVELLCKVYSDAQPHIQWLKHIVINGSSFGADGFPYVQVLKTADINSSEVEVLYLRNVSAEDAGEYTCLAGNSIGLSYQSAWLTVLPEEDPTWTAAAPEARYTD
# T2: 6His-Fc-FGFR1c (human, UniProt P11362 141-376)
# T2 construct: not shown: 6His tag and Fc as named in '6His-Fc-FGFR'
# T2 sequence: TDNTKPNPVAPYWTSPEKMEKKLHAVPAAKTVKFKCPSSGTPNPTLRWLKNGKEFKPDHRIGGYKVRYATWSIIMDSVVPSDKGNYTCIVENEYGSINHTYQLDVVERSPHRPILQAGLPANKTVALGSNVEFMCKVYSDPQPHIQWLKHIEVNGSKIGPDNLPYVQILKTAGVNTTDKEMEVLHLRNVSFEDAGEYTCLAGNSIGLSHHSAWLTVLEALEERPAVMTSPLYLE
# T3: soluble FGFR3c receptor protein (human, UniProt P22607 141-372)
# T3 sequence: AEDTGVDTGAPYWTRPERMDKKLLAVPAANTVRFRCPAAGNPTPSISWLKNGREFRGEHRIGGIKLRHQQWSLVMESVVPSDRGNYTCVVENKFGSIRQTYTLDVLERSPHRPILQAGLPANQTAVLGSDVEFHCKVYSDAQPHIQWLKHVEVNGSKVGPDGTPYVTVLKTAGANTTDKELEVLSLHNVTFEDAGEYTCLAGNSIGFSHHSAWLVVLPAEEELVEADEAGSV
# T4: soluble FGFR4 receptor protein (human, UniProt P22455 144-369)
# T4 sequence: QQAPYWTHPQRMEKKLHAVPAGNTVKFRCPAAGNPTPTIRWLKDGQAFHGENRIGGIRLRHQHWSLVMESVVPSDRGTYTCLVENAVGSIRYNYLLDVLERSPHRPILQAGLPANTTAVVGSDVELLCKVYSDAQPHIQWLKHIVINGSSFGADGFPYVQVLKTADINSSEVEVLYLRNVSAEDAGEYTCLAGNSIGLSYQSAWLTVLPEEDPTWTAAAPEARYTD
# T5: soluble FGFR1c receptor protein (human, UniProt P11362 141-376)
# T5 sequence: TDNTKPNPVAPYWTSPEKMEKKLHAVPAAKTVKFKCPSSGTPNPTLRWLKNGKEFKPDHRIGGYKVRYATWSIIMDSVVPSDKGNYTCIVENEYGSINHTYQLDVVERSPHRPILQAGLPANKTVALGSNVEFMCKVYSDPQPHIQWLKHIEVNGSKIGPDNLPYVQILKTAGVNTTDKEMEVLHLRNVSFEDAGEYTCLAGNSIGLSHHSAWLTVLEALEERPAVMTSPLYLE
# Key:
# 6His-Fc-FGFR4 = molecular target: T1, 6His-Fc-FGFR4; test: competition ELISA, blocks 6His-Fc-FGFR4 binding to coated FGF2
# Experimental: (§1) ELISA plates were coated with 50 ug/ml Heparin Sulfate (HSPG) (Sigma Aldrich) and incubated overnight at room temperature. Plates were then washed extensively with PBS containing 0.05% v/v Tween20 (PBST). Plates were then blocked with 2.5% BSA in PBST for one hour and washed extensively as before. 40-60 μL of FGF1 or FGF2 was then added to each well at 40 μg/ml and allowed to bind at room temperature for 2 hours. Plates were then washed extensively with PBST as before. Stock solutions of each 6His-Fc-FGFR (FGFR1-4) were prepared at 500 ng/ml in 2% v/v BSA-PBST and each antibody was prepared as a 2×-dilution series in 2% v/v BSA-PBST. Antibodies dilution series and 6His-Fc-FGFR1-4 were diluted in a 1:1 fashion and immediately added to the relative wells of the plate and allowed to bind for 2 hours at room temperature. Plates were washed extensively as before with PBST and the remaining fraction of bound 6His-Fc-FGFR was detected using a polyclonal-anti-His-6-HRP conjugated antibody (Abcam) for one hour at room temperature. After extensive washing with PBST, 50 μl of Pierce Chemiluminescent substrate (Thermo Fisher Scientific, Rockford, USA) was added and plates were measured on an Envision plate reader (Perkin Elmer). Raw data was background corrected and plotted using Prism software. […]
# 6His-Fc-FGFR1c = molecular target: T2, 6His-Fc-FGFR1c; test: competition ELISA, blocks 6His-Fc-FGFR1c binding to coated FGF2
# Experimental: as §1
# [1] = molecular target: T3, soluble FGFR3c receptor protein; test: BLI Octet RED96, antibody on anti-hIgG Fc tip
# Experimental: (§2) Briefly, the Pall ForteBio Octet RED96 Bio-Layer Interferometry system was used to determine the specificity of anti-FGFR antibodies for FGFR1c, FGFR2c, FGFR3c, and FGFR4. The antibodies and soluble receptor proteins were prepared in PBS at a concentration of 300 nM. First, the candidate antibodies were immobilized on the surface of anti-human IgG Fc biosensor tips for 120 seconds. After immobilization, the biosensors were dipped in PBS solution for 60 seconds (baseline step) to assess assay drift, and determine loading level of antibodies. The baseline step was followed by an association step of 300 seconds wherein the binding interaction between the immobilized antibodies and soluble receptors was measured. Following the association step, the biosensors were dipped into PBS buffer for 600 seconds to measure the dissociation of the bound receptor proteins from the immobilized antibodies. Each binding response was measured and reported real time on a sensorgram trace. For data analysis, a simple 1:1 binding model was used which measures the rate of complex formation of one immobilized antibody and one soluble receptor protein.
# [2] = molecular target: T4, soluble FGFR4 receptor protein; test: BLI Octet RED96, antibody on anti-hIgG Fc tip
# Experimental: as §2
# [3] = molecular target: T5, soluble FGFR1c receptor protein; test: BLI Octet RED96, antibody on anti-hIgG Fc tip
# Experimental: as §2
# [4] = molecular target: soluble FGFR2c receptor protein (human, UniProt P21802 148-377); test: BLI Octet RED96, antibody on anti-hIgG Fc tip
# Sequence of soluble FGFR2c receptor protein (P21802 148-377): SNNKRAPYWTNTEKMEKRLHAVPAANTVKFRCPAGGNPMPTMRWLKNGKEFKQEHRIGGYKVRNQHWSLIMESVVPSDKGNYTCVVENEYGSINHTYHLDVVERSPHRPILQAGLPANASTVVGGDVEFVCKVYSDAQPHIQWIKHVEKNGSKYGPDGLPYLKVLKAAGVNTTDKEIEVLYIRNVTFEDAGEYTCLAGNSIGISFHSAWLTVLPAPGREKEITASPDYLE
# Experimental: as §2
Binder,IC50 (6His-Fc-FGFR4) [nM],IC50 (6His-Fc-FGFR1c) [nM],also measured
"Ab59 (antibody, human IgG2, kappa, V domains shown, format in the assays not spelled out) VH: EVQLLESGGGVVQPGRSLRLSCAASGFTFSSYAMHWVRQAPGKGLEWVAVISYDGSNKYYADSVKGRFTISRDNSKNTLSLQMNSLRVEDTAIYYCVRGAGRGYPYGPDGFDIWGQGTMVTVSS VL: DIVMTQTPLSLSVTPGQPASISCTSSRSLLHSDGKTYVYWYVQKSGQPPQLLIYELSNRFSGVPDRFSGSGSRTDFTLKISRVEAEDVGVYYCMQYIEAPLTFGGGTKVEIKR",~6.86,2.22,
"Ab40 (antibody, human IgG2, kappa, V domains shown, format in the assays not spelled out) VH: EVQLLESGGGVVQPGRSLRLSCAASGFTFSSYAMHWVRQAPGKGLEWVAVISYDGSNKYYADSVKGRFTISRDNSKNTLSLQMNSLRVEDTAIYYCVRGAGMGLTYGPDGFDIWGQGTMVTVSS VL: DIVMTQTPLSLSVTPGQPASISCRSSRSLLHSDGKTYVYWYVQKSGQPPQLLIYELSNRFSGVPDRFSGSGSRTDFTLKISRVEAEDVGVYYCMQYIEAPLTFGGGTKVEIKR",17.5,4.85,
"Ab56 (antibody, human IgG2, kappa, V domains shown, format in the assays not spelled out) VH: EVQLLESGGGVVQPGRSLRLSCAASGFTFSSYAMHWVRQAPGKGLEWVAVISYDGSNKYYADSVKGRFTISRDNSKNTLSLQMNSLRVEDTAIYYCVRGAGMGLTYGPDGFDIWGQGTMVTVSS VL: DIVMTQTPLSLSVTPGQPASISCTSSRSLLHSDGKTYVYWYVQKSGQPPQLLIYELSNRFSGVPDRFSGSGSRTDFTLKISRVEAEDVGVYYCMQYIEAPLTFGGGTKVEIKR",13.6,3.03,
"Ab41 (antibody, human IgG2, kappa, V domains shown, format in the assays not spelled out) VH: EVQLLESGGGVVQPGRSLRLSCAASGFTFSSYAMHWVRQAPGKGLEWVAVISYDGSNKYYADSVKGRFTISRDNSKNTLSLQMNSLRVEDTAIYYCVRGAGLGFPYGPDGFDIWGQGTMVTVSS VL: DIVMTQTPLSLSVTPGQPASISCRSSRSLLHSDGKTYVYWYVQKSGQPPQLLIYELSNRFSGVPDRFSGSGSRTDFTLKISRVEAEDVGVYYCMQYIEAPLTFGGGTKVEIKR",9.87,3.53,
"Vk10 combined with the VH of Ab15 (antibody, V domains shown, captured on anti-human IgG Fc tips) VH: EVQLLESGGGVVQPGRSLRLSCAASGFTFSSYAMHWVRQAPGKGLEWVAVISYDGSNKYYADSVKGRFTISRDNSKNTLSLQMNSLRVEDTAIYYCVRGAGRGYTYGPDGFDIWGQGTMVTVSS VL: DIVMTQSPDSLAVSLGERATISCTSSRSLLHSDGKTYVYWYQQKPGQPPKLLIYELSNRFSGVPDRFSGSGSRTDFTLTISSLQAEDVAVYYCMQYIEAPLTFGGGTKVEIK",,,Kd [1]: 5.23 nM; koff [1]: 0.000701 s⁻¹; kon [1]: 134000 M⁻¹ s⁻¹; Kd [2]: 4.43 nM; koff [2]: 0.000585 s⁻¹; kon [2]: 132000 M⁻¹ s⁻¹; Kd [3]: 5.33 nM; koff [3]: 0.000294 s⁻¹; kon [3]: 55200 M⁻¹ s⁻¹; Kd [4]: 6.49 nM; koff [4]: 0.00142 s⁻¹; kon [4]: 220000 M⁻¹ s⁻¹
"Ab49 (antibody, human IgG2, kappa, V domains shown, format in the assays not spelled out) VH: EVQLLESGGGVVQPGRSLRLSCAASGFTFSSYAMHWVRQAPGKGLEWVAVISYDGSNKYYADSVKGRFTISRDNSKNTLSLQMNSLRVEDTAIYYCVRGAGRGYPYGPDGFDIWGQGTMVTVSS VL: DIVMTQTPLSLSVTPGQPASISCRSSRSLLHSDGKTYVYWYVQKSGQPPQLLIYELSNRFSGVPDRFSGSGSRTDFTLKISRVEAEDVGVYYCMQYIEAPLTFGGGTKVEIKR",18.4,4.67,
"Ab57 (antibody, human IgG2, kappa, V domains shown, format in the assays not spelled out) VH: EVQLLESGGGVVQPGRSLRLSCAASGFTFSSYAMHWVRQAPGKGLEWVAVISYDGSNKYYADSVKGRFTISRDNSKNTLSLQMNSLRVEDTAIYYCVRGAGLGFPYGPDGFDIWGQGTMVTVSS VL: DIVMTQTPLSLSVTPGQPASISCTSSRSLLHSDGKTYVYWYVQKSGQPPQLLIYELSNRFSGVPDRFSGSGSRTDFTLKISRVEAEDVGVYYCMQYIEAPLTFGGGTKVEIKR",8.41,2.8,
"Ab51 (antibody, human IgG2, kappa, V domains shown, format in the assays not spelled out) VH: EVQLLESGGGVVQPGRSLRLSCAASGFTFSSYAMHWVRQAPGKGLEWVAVISYDGSNKYYADSVKGRFTISRDNSKNTLSLQMNSLRVEDTAIYYCVRGAGRGFPYGPDGFDIWGQGTMVTVSS VL: DIVMTQTPLSLSVTPGQPASISCRSSRSLLHSDGKTYVYWYVQKSGQPPQLLIYELSNRFSGVPDRFSGSGSRTDFTLKISRVEAEDVGVYYCMQYIEAPLTFGGGTKVEIKR",21.1,3.86,
"Ab43 (antibody, human IgG2, kappa, V domains shown, format in the assays not spelled out) VH: EVQLLESGGGVVQPGRSLRLSCAASGFTFSSYAMHWVRQAPGKGLEWVAVISYDGSNKYYADSVKGRFTISRDNSKNTLSLQMNSLRVEDTAIYYCVRGAGRGYPYGPDGFDIWGQGTMVTVSS VL: DIVMTQTPLSLSVTPGQPASISCRSSRSLLHSDGKTYVYWYVQKSGQPPQLLIYELSNRFSGVPDRFSGSGSRTDFTLKISRVEAEDVGVYYCMQYIEAPLTFGGGTKVEIKR",10,6.62,

# Now from value to binder, other results behind:
IC50 (6His-Fc-FGFR4) [nM],IC50 (6His-Fc-FGFR1c) [nM],Binder,also measured
17.4,12.2,"Ab63 (antibody, human IgG2, kappa, V domains shown, format in the assays not spelled out) VH: EVQLLESGGGVVQPGRSLRLSCAASGFTFSSYAMHWVRQAPGKGLEWVAVISYDGSNKYYADSVKGRFTISRDNSKNTLSLQMNSLRVEDTAIYYCVRGAGRGYPHGPDGFDIWGQGTMVTVSS VL: DIVMTQTPLSLSVTPGQPASISCTSSRSLLHSDGKTYVYWYVQKSGQPPQLLIYELSNRFSGVPDRFSGSGSRTDFTLKISRVEAEDVGVYYCMQYIEAPLTFGGGTKVEIKR",
12.8,5.36,"Ab67 (antibody, human IgG2, kappa, V domains shown, format in the assays not spelled out) VH: EVQLLESGGGVVQPGRSLRLSCAASGFTFSSYAMHWVRQAPGKGLEWVAVISYDGSNKYYADSVKGRFTISRDNSKNTLSLQMNSLRVEDTAIYYCVRGAGRGFPYGPDGFDIWGQGTMVTVSS VL: DIVMTQTPLSLSVTPGQPASISCTSSRSLLHSDGKTYVYWYVQKSGQPPQLLIYELSNRFSGVPDRFSGSGSRTDFTLKISRVEAEDVGVYYCMQYIEAPLTFGGGTKVEIKR",
5.67,2.96,"Ab68 (antibody, human IgG2, kappa, V domains shown, format in the assays not spelled out) VH: EVQLLESGGGVVQPGRSLRLSCAASGFTFSSYAMHWVRQAPGKGLEWVAVISYDGSNKYYADSVKGRFTISRDNSKNTLSLQMNSLRVEDTAIYYCVRGAGLGYPNGPDGFDIWGQGTMVTVSS VL: DIVMTQTPLSLSVTPGQPASISCTSSRSLLHSDGKTYVYWYVQKSGQPPQLLIYELSNRFSGVPDRFSGSGSRTDFTLKISRVEAEDVGVYYCMQYIEAPLTFGGGTKVEIKR",
19.8,4.59,"Ab70 (antibody, human IgG2, kappa, V domains shown, format in the assays not spelled out) VH: EVQLLESGGGVVQPGRSLRLSCAASGFTFSSYAMHWVRQAPGKGLEWVAVISYDGSNKYYADSVKGRFTISRDNSKNTLSLQMNSLRVEDTAIYYCVRGAGQGYPYGPDGFDIWGQGTMVTVSS VL: DIVMTQTPLSLSVTPGQPASISCKSSRSLLHSDGKTYVYWYVQKSGQPPQLLIYELSNRFSGVPDRFSGSGSRTDFTLKISRVEAEDVGVYYCMQYIEAPLTFGGGTKVEIKR",
